Article PMC6052347, “Structure and Function of the Campylobacter jejuni Chromosome Replication Origin”

Target: T1, 6HisCj1509 (Campylobacter jejuni 81116 (NCTC11828)?, UniProt Q0P820 1-295)
T1 sequence: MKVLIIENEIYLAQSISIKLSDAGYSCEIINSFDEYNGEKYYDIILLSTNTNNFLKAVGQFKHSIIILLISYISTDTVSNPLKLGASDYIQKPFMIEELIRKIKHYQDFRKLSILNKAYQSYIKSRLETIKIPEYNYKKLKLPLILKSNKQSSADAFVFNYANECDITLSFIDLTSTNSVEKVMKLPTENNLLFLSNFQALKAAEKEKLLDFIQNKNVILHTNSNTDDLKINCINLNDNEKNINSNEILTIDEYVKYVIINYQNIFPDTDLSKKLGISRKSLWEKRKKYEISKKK
Assay: EMSA; higher affinity than boxes 1 and 3; EMSA: room temperature, 15 min, up to 30 nM DnaA or 400 nM Cj1509, 4% PAGE in 1x TBE; box probes 0.4 uM; binding buffer not given (as in Jaworski 2016); DnaA with 5 mM ATP (footprinting) or 3 mM ATP (EM)
Settings: protein: recombinant; tags: N-terminal 6xHis (pET28a); chain copies: 2; label: FAM 5' on E7; blunt; three strands, nick between E7 and E10, E11 complementary to E7+E10

B1: Cj1509 box 2 probe (E7-E10-E11) (dsDNA)
DNA 1: GTGCCCTGGTCTGG
DNA 2: TTTGAAGAATGTTACAATTTCAACA
DNA 3: TGTTGAAATTGTAACATTCTTCAAACCAGACCAGGGCAC
Does B1 bind?
Result: binds
